# Article doi:10.1101/160580 (bioRxiv, 2017)
# Changes are numbered by the printed parent chain. Numbers in names are those of the source.
# B1: sperm lysin from red abalone (Haliotis rufescens), wild type (natural protein)
# chain: RSWHYVEPKFLNKAFEVALKVQIIAGFDRGLVKWLRVHGRTLSTVQKKALYFVNRRYMQTHWANYMLWINKKIDALGRTPVVGDYTRLGAEIGRRIDMAYFYDFLKDKNMIPKYLPYMEEINRMRPADVPVKYMGK
# B2: F104A lysin (monomeric mutant of red abalone sperm lysin) (natural protein)
# chain: B1 chain with F104A
# Legend:
# [1] = target: the molecule itself; assay: NMR relaxation
# [2] = target: the molecule itself; assay: cell-based or functional assay
Protein,binding result [1],"in vitro VE dissolution (turbidity at 640 nm), F104A lysin against WT lysin [2] [fold]"
B1,binds,
B2,,≥ 4
